Data from publication doi:10.1101/2020.09.01.277368 (bioRxiv, 2020).
“And” between values parts separate entries of the source, which are not always exact repeats. Equal entries are not always repeated.

Molecular target: the molecule itself
Assay: AUC; sedimentation velocity (SV-AUC); MetA at 10, 20 and 30 µM in 20 mM Tris-Cl pH 7.5, 150 mM NaCl; 40,000 rpm; absorbance at 280 nm; SEDFIT continuous c(s) distribution; monomer, dimer and tetramer peaks, populations unchanged at the three concentrations

B1: homoserine acetyl transferase MetA (Rv3341) of Mycobacterium tuberculosis, recombinant histidine-tagged (enzyme)
chain: MTISDVPTQTLPAEGEIGLIDVGSLQLESGAVIDDVCIAVQRWGKLSPARDNVVVVLHALTGDSHITGPAGPGHPTPGWWDGVAGPGAPIDTTRWCAVATNVLGGCRGSTGPSSLARDGKPWGSRFPLISIRDQVQADVAALAALGITEVAAVVGGSMGGARALEWVVGYPDRVRAGLLLAVGARATADQIGTQTTQIAAIKADPDWQSGDYHETGRAPDAGLRLARRFAHLTYRGEIELDTRFANHNQGNEDPTAGGRYAVQSYLEHQGDKLLSRFDAGSYVILTEALNSHDVGRGRGGVSAALRACPVPVVVGGITSDRLYPLRLQQELADLLPGCAGLRVVESVYGHDGFLVETEAVGELIRQTLGLADREGACRR
notes: also called HSAT; (His)6-Rv3341
For B1, the “stoichiometry N” value was 2 and 4.
